Consider two substances from US20160362464A1.

For test [1], the target named is FZD7-CFP. Nature of the test: FRET at the plasma membrane of starved HEK293 cells; printed: No such interaction was observed in starved cells (FIG. 4H, I).
For test [2], the target named is FZD7-CFP. In words: FRET at the plasma membrane of HEK293 cells within 5 min after Wnt5a stimulation (FIG. 4H, I).
Test [3] deals with CFP-Gβ1 with untagged Gγ2. In words: FRET at the plasma membrane of control HeLa cells, before Wnt5a stimulation (FIG. 2J, L).
The target of test [4] is CFP-Gβ1 with untagged Gγ2. In words: FRET at the plasma membrane of control HeLa cells, within 5 min after Wnt5a stimulation (FIG. 2J, L).

CFP-Gβ1 with untagged Gγ2, sequence (P62873 2-340, chain 1 of 2): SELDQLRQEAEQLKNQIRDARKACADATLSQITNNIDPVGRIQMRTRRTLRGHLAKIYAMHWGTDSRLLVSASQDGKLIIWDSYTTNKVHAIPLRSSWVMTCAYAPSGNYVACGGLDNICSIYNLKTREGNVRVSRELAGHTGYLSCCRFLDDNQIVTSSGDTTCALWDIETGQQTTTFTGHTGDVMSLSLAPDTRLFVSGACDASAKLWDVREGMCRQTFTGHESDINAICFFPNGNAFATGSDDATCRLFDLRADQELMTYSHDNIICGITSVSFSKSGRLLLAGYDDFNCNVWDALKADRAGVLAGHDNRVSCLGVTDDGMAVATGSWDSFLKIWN
CFP-Gβ1 with untagged Gγ2, sequence (P59768 2-68, chain 2 of 2, further chain): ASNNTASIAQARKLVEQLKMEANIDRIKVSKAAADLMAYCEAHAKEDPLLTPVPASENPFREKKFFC
Gαi1-YFP (internally tagged), sequence (P10824 2-354): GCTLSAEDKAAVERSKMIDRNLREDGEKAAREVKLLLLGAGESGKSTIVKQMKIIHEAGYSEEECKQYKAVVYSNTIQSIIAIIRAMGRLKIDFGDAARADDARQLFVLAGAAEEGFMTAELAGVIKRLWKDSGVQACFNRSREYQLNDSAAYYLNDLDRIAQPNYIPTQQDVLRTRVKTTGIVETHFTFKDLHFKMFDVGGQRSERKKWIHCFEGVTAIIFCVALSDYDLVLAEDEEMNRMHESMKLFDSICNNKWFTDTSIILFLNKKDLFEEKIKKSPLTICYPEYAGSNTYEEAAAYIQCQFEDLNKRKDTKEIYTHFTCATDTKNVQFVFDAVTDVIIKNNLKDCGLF

As for Gαi3-YFP (internally tagged), the FRET efficiency came to 0.04 with FZD7-CFP [1] and 0.25 in the test with FZD7-CFP [2].
Gαi1-YFP (internally tagged): the FRET efficiency in test [3] turned out to be 0.36; in test [4], 0.17.
